Data reported in patent publication US11827701B2, “IL-6 binding molecules” (argenx BV, priority 2012, dated 2023).
Residue numbers refer to the chain shown, from its start.

B1: 29B11: antagonistic IL-6-specific Fab clone from immunized llama (antibody, listed as Lama glama, V domains shown)
VH: EVQLVESGGGLVQPGGSLRLSCAASGFTFSSYAMSWVRQAPGKGLEWVSRISSGGISTYYADSVKGRFTISRDNAKNTLYLQMNSLKPEDTAVYYCVRYAWGVQWAFDFWGQGTQVTVSS
VL: QSVLTQPPSVSGSPGQTVTISCAGTSEDVGYGNYVSWYQQLPGMAPKLLIYDVNKRASGIADRFSGSKSGNTASLTISGLQSEDEADYYCASYRRTIDNIFGGGTHLTVLG
B2: 55A11d: 28A6 chain-shuffled Fab, periplasmic fraction (antibody, V domains shown)
VH: QVQLVESGGGLVQPGGSLRLSCAASGFTFSNYYMTWVRQAPGKGLEWVSSIYSFSGDTAYADSVKGRFTISRDNAKNTLYLQMNSLKSEDTAVYYCTRNLGGVVVTTNGYDYWGQGTQVTVSS
VL: DIQMTQSPSSLPTSLGDSVTITCQASQSISDELSWYQQKPGQTPKLLIYGASRLQTGVPSRFSGRGSGTSFTLTISGLEAEDLATYYCLQGYSWPFMFGQGTKVELK
B3: 55E10g1: 28A6 chain-shuffled Fab, periplasmic fraction (antibody, V domains shown)
VH: B2 VH
VL: B2 VL with R53K, R65S
B4: 55C11f: 28A6 chain-shuffled Fab, periplasmic fraction (antibody, V domains shown)
VH: B2 VH
VL: B2 VL with M4L, P12S, T13A, R53K, R65S, S93R
B5: 48H1g2, R4: 28A6 chain-shuffled Fab, periplasmic fraction (antibody, V domains shown)
VH: B2 VH
VL: B2 VL with I2V, Q3V, R53K, R65S
B6: 55E2b: 29B11 chain shuffled Fab, periplasmic fraction (antibody, V domains shown)
VH: B1 VH
VL: AQSVLTQPPSVSGSPGKTVTISCAGTSSDVGYGNYVSWYQQLPGMAPKLLIYDVNKRASGIADRFSGSKFANTASLTISGLQSEDEADYYCASYKRGDNAVFGGGTKLTVLG
B7: 47C2 (R4): 29B11 chain shuffled Fab, periplasmic fraction (antibody, listed as Lama glama, V domains shown)
VH: B1 VH
VL: ALSYDLTQPPSVSGSPGKTVTISCAGTSSDVGYGNYVSWYQQLPGMAPKILIYDVNKRASGIADRFSGSKSGNTASLTISGLQSEDEADYYCASYRRGETIVFGGGTHLTVLG
B8: 48C10: 29B11 chain shuffled Fab, periplasmic fraction (antibody, listed as Lama glama, V domains shown)
VH: B1 VH
VL: AQSVLTQPPSVSGSPGQTVTISCAGTSEDVGYGNYVSWYQQLPGMAPKLLIYDVNKRASGIADRFSGSKSGNTASLTISGLQSEDEADYYCASYRRTIDNIFGGGTHLTVLG
B9: 55C1a: 29B11 chain shuffled Fab, periplasmic fraction (antibody, V domains shown)
VH: B1 VH
VL: ALNFMLTQPPSVSGSPGKTVTISCAGTSSDVGYGNYVSWYQQLPGTAPKLLIYNVNKRASGITDRFSGSKSGNTASLTISGLQSEDEADYYCASYRTGDNAAFGGGTKLTVLG
B10: 17F10: antagonistic IL-6-specific Fab clone from immunized llama (antibody, listed as Lama glama, V domains shown)
VH: EVQLQESGPGLVKPSQTLSLTCTVSGGSIATSYYAWSWIRQPPGKGLEWMGVIDYDGDTYYKPSLKSRTSISRDTSKNQFSLQLSSVTPEDTAVYYCARAGLGDSYYLGTYYAMDYWGKGTLVTVSS
VL: QAGLTQPPSVSGSPGKTVTISCAGTTSDVGTGNFVSWYQQLPGMAPKLLIYDVNKRASGIADRFSGSKSGNTASLTISGLQSEDEADYYCASYRSLNNVVFGGGTHLTVLG

molecular target: biotinylated (prokaryotic) IL-6 (Homo sapiens, UniProt P05231); test: Surface plasmon resonance (Biacore), biotinylated IL-6 captured on streptavidin sensor chip; assay type: binding; conditions: purified Fab
Sequence (P05231 30-212): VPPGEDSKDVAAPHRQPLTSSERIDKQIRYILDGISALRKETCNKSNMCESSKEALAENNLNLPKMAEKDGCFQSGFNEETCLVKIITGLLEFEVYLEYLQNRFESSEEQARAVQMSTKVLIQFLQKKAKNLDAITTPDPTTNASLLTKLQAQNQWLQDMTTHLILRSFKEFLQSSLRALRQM
Method: (§1) The binding kinetics of IL-6-specific Fabs that were able to cross-compete with the B-E8 antibody was assessed using surface plasmon resonance (Biacore). Specifically, biotinylated (prokaryotic) IL-6 was captured on a streptavidin biacore sensor chip (CM5-SA) and different concentrations of purified Fabs were injected during 3 minutes following by a 5 minute wash with buffer. From the washing phase the off-rate (kd) was determined, while from the injection phase the on-rate (ka) was calculated using the concentration and off-rate as parameters. […] The binding kinetics of antagonistic purified Fabs (Table 3) and periplasmic fractions of Fab-expressing bacteria (Table 4) were also evaluated by surface plasmon resonance (Biacore) using both bacterially and eukaryotically produced human IL-6 directly coated on a CM5 chip. The Fabs tested had off-rates between 6×10^−4 and 2×10^−5 s^−1.

| Molecule | KA | Rmax | ka | kd |
| --- | --- | --- | --- | --- |
| B1 | 4.36e+07 M⁻¹ | 23.3 RU | 130000 M⁻¹ s⁻¹ | 0.00298 s⁻¹ |

molecular target: T1, bacterially produced human IL-6 (Homo sapiens, UniProt P05231); test: Surface plasmon resonance (Biacore), bacterially produced human IL-6 coated on CM5 chip; assay type: binding; conditions: bact; periplasmic fractions, 28A6 chain-shuffled
T1 construct: His
T1 sequence (P05231 30-212): as above
Method: as §1
(§2) VL chain shuffling was used to improve the affinity of the Fabs 17F10, 18C7, 18C9, 18C11, 20A4, 29B11, 16D2 and 28A6. In this method, the heavy chain of these clones (as a VHCH1 fragment) was reintroduced into the primary phagemid-light chain library (see Example 1). Affinity selections were performed to select for chain shuffled Fabs with an improved affinity for IL-6. The binding kinetics of chain shuffled Fabs were evaluated by surface plasmon resonance (Biacore) using both bacterially and eukaryotically produced human IL-6, and cynomolgus monkey IL-6 (Tables 5-7). The VH and VL amino acid sequences of exemplary IL-6-specific Fabs selected by the VL chain shuffling method are set forth in Table 14 below.
(§3) VH chain shuffling was also used to improve the affinity of the Fab 24D10. In this method, the light chain of 24D10 was reintroduced into the primary phagemid-heavy chain library (see Example 1) and selected using an off-rate assay. In this type of selection, the phage were allowed to bind to antigen on a substrate for 1.5 to 2 hours. At round 2, after 15 washes with PBS-Tween, an additional wash was performed with the presence of excess soluble IL-6. […] This procedure avoids re-binding of such phage to the coated target. […] The binding kinetics of chain shuffled Fabs and the benchmark antibodies, BE8 and GL18, were evaluated by surface plasmon resonance (Biacore) using both bacterially and eukaryotically produced human IL-6 (Tables 8 and 9). The VH and VL amino acid sequences of exemplary IL-6-specific Fabs selected by the VH chain shuffling method are set forth in Table 14 below. […]

| Molecule | KA | ka | kd |
| --- | --- | --- | --- |
| B2 | 2.78e+09 M⁻¹ | 188000 M⁻¹ s⁻¹ | 6.76e-05 s⁻¹ |
| B3 | 3.18e+09 M⁻¹ | 193000 M⁻¹ s⁻¹ | 6.09e-05 s⁻¹ |
| B4 | 3.29e+09 M⁻¹ | 228000 M⁻¹ s⁻¹ | 6.94e-05 s⁻¹ |
| B5 | 2.93e+09 M⁻¹ | 206000 M⁻¹ s⁻¹ | 7.04e-05 s⁻¹ |

same assay, conditions: bact; periplasmic fractions, 29B11 chain shuffled

| Molecule | KA | ka | kd |
| --- | --- | --- | --- |
| B1 | 1.91e+09 M⁻¹ | 251000 M⁻¹ s⁻¹ | 0.000131 s⁻¹ |
| B6 | 7.28e+09 M⁻¹ | 489000 M⁻¹ s⁻¹ | 6.72e-05 s⁻¹ |
| B7 | 3.56e+09 M⁻¹ | 1.12e+06 M⁻¹ s⁻¹ | 0.000315 s⁻¹ |
| B8 | 1.43e+09 M⁻¹ | 262000 M⁻¹ s⁻¹ | 0.000184 s⁻¹ |
| B9 | 7.6e+09 M⁻¹ | 561000 M⁻¹ s⁻¹ | 7.38e-05 s⁻¹ |

same assay, conditions: purified chain-shuffled Fabs

| Molecule | Koff HIS-huIL-6 |
| --- | --- |
| B10 | 0.00088 s⁻¹ |

molecular target: T2, cynomolgus monkey IL-6 (Macaca fascicularis, UniProt P79341); test: Surface plasmon resonance (Biacore), cynomolgus monkey IL-6; assay type: binding; conditions: cy/cyno; periplasmic fractions, 28A6 chain-shuffled
T2 construct: His
T2 sequence (P79341 28-212): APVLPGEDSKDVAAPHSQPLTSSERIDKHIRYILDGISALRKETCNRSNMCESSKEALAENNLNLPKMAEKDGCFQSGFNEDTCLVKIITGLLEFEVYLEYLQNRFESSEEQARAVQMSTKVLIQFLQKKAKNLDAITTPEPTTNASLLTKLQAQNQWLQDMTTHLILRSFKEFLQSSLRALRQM
Method: as §2

| Molecule | KA | ka | kd |
| --- | --- | --- | --- |
| B2 | 1.77e+09 M⁻¹ | 144000 M⁻¹ s⁻¹ | 8.17e-05 s⁻¹ |
| B3 | 2.1e+09 M⁻¹ | 145000 M⁻¹ s⁻¹ | 6.88e-05 s⁻¹ |
| B4 | 3.2e+09 M⁻¹ | 285000 M⁻¹ s⁻¹ | 8.9e-05 s⁻¹ |
| B5 | 1.18e+09 M⁻¹ | 112000 M⁻¹ s⁻¹ | 9.46e-05 s⁻¹ |

same assay, conditions: cy/cyno; periplasmic fractions, 29B11 chain shuffled

| Molecule | KA | ka | kd |
| --- | --- | --- | --- |
| B1 | 1.51e+08 M⁻¹ | 113000 M⁻¹ s⁻¹ | 0.000746 s⁻¹ |
| B6 | 1.39e+09 M⁻¹ | 468000 M⁻¹ s⁻¹ | 0.000336 s⁻¹ |
| B7 | 6.48e+08 M⁻¹ | 851000 M⁻¹ s⁻¹ | 0.00131 s⁻¹ |
| B8 | 4.1e+08 M⁻¹ | 180000 M⁻¹ s⁻¹ | 0.00044 s⁻¹ |
| B9 | 1.25e+09 M⁻¹ | 475000 M⁻¹ s⁻¹ | 0.000381 s⁻¹ |

same assay, conditions: purified chain-shuffled Fabs

| Molecule | Koff HIS-cyIL-6 |
| --- | --- |
| B10 | 0.00078 s⁻¹ |

molecular target: T3, eukaryotically produced human IL-6 (Homo sapiens, UniProt P05231); test: Surface plasmon resonance (Biacore), eukaryotically produced human IL-6 coated on CM5 chip; assay type: binding; conditions: euk; periplasmic fractions, 28A6 chain-shuffled
T3 construct: purchased Humanzyme HZ-1044; host or cells: Human Embryonic kidney cells
T3 sequence (P05231 30-212): as the sequence (P05231 30-212) above
Method: as §1, §2, §3

| Molecule | KA | ka | kd |
| --- | --- | --- | --- |
| B2 | 1.59e+09 M⁻¹ | 101000 M⁻¹ s⁻¹ | 6.36e-05 s⁻¹ |
| B3 | 2.62e+09 M⁻¹ | 146000 M⁻¹ s⁻¹ | 5.59e-05 s⁻¹ |
| B4 | 3.1e+09 M⁻¹ | 201000 M⁻¹ s⁻¹ | 6.47e-05 s⁻¹ |
| B5 | 1.56e+09 M⁻¹ | 106000 M⁻¹ s⁻¹ | 6.8e-05 s⁻¹ |

same assay, conditions: euk; periplasmic fractions, 29B11 chain shuffled

| Molecule | KA | ka | kd |
| --- | --- | --- | --- |
| B1 | 1.83e+09 M⁻¹ | 187000 M⁻¹ s⁻¹ | 0.000102 s⁻¹ |
| B6 | 6.34e+09 M⁻¹ | 414000 M⁻¹ s⁻¹ | 6.53e-05 s⁻¹ |
| B7 | 3.54e+09 M⁻¹ | 849000 M⁻¹ s⁻¹ | 0.00024 s⁻¹ |
| B9 | 5.55e+09 M⁻¹ | 440000 M⁻¹ s⁻¹ | 7.93e-05 s⁻¹ |

same assay, conditions: purified chain-shuffled Fabs

| Molecule | Koff eukIL-6 |
| --- | --- |
| B10 | 0.00077 s⁻¹ |
